Test [1] addresses SARS-CoV-2刺突S1亚基蛋白(Sino公司，货号:40591-V02H) (SARS-CoV-2 (2019-nCoV), UniProt P0DTC2 16-685).
For test [2], the target named is SARS-CoV-2 RBD结构域重组蛋白(Sino公司，货号40592-V05H) (SARS-CoV-2 (2019-nCoV), UniProt P0DTC2 319-541).
Test [3] concerns the target T1, SARS-CoV-2刺突S1-His重组蛋白(Sino公司，货号:40591-V08H) (SARS-CoV-2 (2019-nCoV), UniProt P0DTC2 16-685).
T1 construct: domain: S1; also called S1蛋白; 刺突蛋白S1
The test is described as follows: ELISA, S1-His coated at 1.0 μg/mL, detection by goat anti-human IgG-HRP. Background: ELISA stands for enzyme-linked immunosorbent assay.

One may read the IC50 as the concentration that inhibits the measured activity by half. The low end stands for higher potency, the high end for lower potency. As a reminder, the EC50 is the midpoint of the concentration-response curve. A low value points to higher potency in that assay.

B1: 抗SARS-CoV-2的单克隆抗体1H8 (antibody, V domains shown)
VH: EVQLVESGGGLVQPGGSLRLSCAASEITVSSNYMNWVRQAPGKGLEWVSVIYSGGTTYYADSVKGRFTISRDNSENTLYLQMNSLRAEDTAVYYCARDLMEVGGMDVWGQGTTVTVSS
VL: DIVMTQSPSSLSASVGDRVTITCRASQGVSNYLAWYQQKPGKVPKLLIYAASTLQSGVPSRFSGSRSGTDFTLTISSLQPEDVATYYCQNYNSAPFAFGPGTKVEIK
notes: also called 人源抗SARS-CoV-2抗体1H8; 1H8抗体
For B1, the results for the IC50 in test [1] and in test [2] were 5.76 nM and 3.6 nM, respectively. Also, the 50% effective concentration (EC50) in test [2] came to 0.035 nM; in test [3], 0.054 nM.
